Results reported in patent US11278600B2, “Human alpha-galactosidase variants” (Codexis, Inc., priority 2014, dated 2022).
Numbering of substitutions follows the chain as printed.

Tests used:
Type in all cases: biochemical
[1] = HTP-analysis of yeast culture supernatants, no challenge (MUGal hydrolysis); details: activity of the variant/activity of Rd7BB (SEQ ID NO: 44)
Outline: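 Activity read as 4-methylumbelliferyl α-D-galactopyranoside hydrolysis: fluorescence (355/448 nm) after sodium carbonate stop, following 30-180 min at 37° C with 2 mM MUGal stock at pH 4.6–4.8. Enzyme source is unchallenged culture supernatant of INVSc1 yeast expressing GLA variants, grown 66-84 h at 30° C.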

[2] = HTP-analysis of supernatants pretreated with acid (MUGal hydrolysis); details: activity of the variant/activity of Rd7BB (SEQ ID NO: 44); challenge at pH 3.5
Outline: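 Fluorescence of MUGal hydrolysis (Ex. 355 nm, Em. 448 nm) is read after sodium carbonate quench. The enzyme source is INVSc1 yeast culture supernatant, first exposed to pH 3.3-4.3 McIlvaine buffer at 37° C. for 1-3 h, then reacted at pH 4.8 for 30-180 minutes.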

[3] = HTP-analysis of supernatants pretreated with base (MUGal hydrolysis); details: activity of the variant/activity of Rd7BB (SEQ ID NO: 44); challenge at pH 7.5
Outline: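 Supernatants from INVSc1 yeast expressing GLA variants (SD-Ura, 66-84 h, 30° C) were mixed with McIlvaine buffer pH 7.0-8.2 or 200 mM sodium bicarbonate pH 9.1-9.7 and held 1-18 h at 37° C. Residual activity was then measured on MUGal at pH 4.8/4.3, 37° C, 30-180 min, by fluorescence (Ex 355/Em 448 nm).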

B1: 646 (protein)
chain: LDNGLARTPTMGWLHWERFMCNLDCQEEPDSCISEKLFMEMAERMVTEGWKDAGYEYLCIDDCWMAPQRDSEGRLQADPQRFPHGIRQLANHVHSKGLKLGIYADVGNKTCACFPGSFGYYDIDAQTFADWGVDLLKFDGCYCDSLENLADGYKHMSLALNRTGRPIVYSCEWPLYMWPFQKPNYTEIRQYCNHWRNFADIDDSWASIKSILDWTSRNQERIVDVAGPGGWNDPDMLVIGNFGLSWDQQVTQMALWAIMAAPLFMSNDLRAISPQAKALLQDKDVIAINQDPLGKQGYQLRKGDNFEVWERPLSGDAWAVAIINRQEIGGPRSYTIPVASLGKGVACNPACFITQLLPVKRQLGFYNWTSRLKSHINPTGTVLLQLENTMQTSLKDLL
modifications: Synthetic Polypeptide sequence of Variant No. 646 of mature Human GLA
For B1, the “Relative Activity of GLA Variants After No Challenge (NC)” value [1] was “− (<0.5 relative activity to Rd7BB (SEQ ID NO: 44))”, the “Relative Activity of GLA Variants After Challenge at pH 3.5” value (“Relative Activity … at pH 3.5” below) [2] was “− (<0.5 relative activity to Rd7BB (SEQ ID NO: 44))” and the “Relative Activity of GLA Variants After Challenge at pH 7.5” value (“Relative Activity … at pH 7.5” below) [3] was “− (<0.5 relative activity to Rd7BB (SEQ ID NO: 44))”.

B2: 653 (protein)
chain: B1 chain with T10P, C113G, W246P
modifications: Synthetic Polypeptide sequence of Variant No. 653 of mature Human GLA
For B2, the “Relative Activity of GLA Variants After No Challenge (NC)” value [1] was “+ (>0.5 to 1.5 relative activity over Rd7BB (SEQ ID NO: 44))”, the “Relative Activity … at pH 3.5” value [2] was “+ (>0.5 to 1.5 relative activity over Rd7BB (SEQ ID NO: 44))” and the “Relative Activity … at pH 7.5” value [3] was “+ (>0.5 to 1.5 relative activity over Rd7BB (SEQ ID NO: 44))”.

B3: 648 (protein)
chain: B1 chain with T10P, M39E, C113G, A261G, W368A
modifications: Synthetic Polypeptide sequence of Variant No. 648
In the case of B3, the “Relative Activity of GLA Variants After No Challenge (NC)” value [1] is reported as “+ (>0.5 to 1.5 relative activity over Rd7BB (SEQ ID NO: 44))”, the “Relative Activity … at pH 3.5” value [2] is reported as “+ (>0.5 to 1.5 relative activity over Rd7BB (SEQ ID NO: 44))” and the “Relative Activity … at pH 7.5” value [3] is reported as “+ (>0.5 to 1.5 relative activity over Rd7BB (SEQ ID NO: 44))”.

B4: 654 (protein)
chain: B1 chain with R7S, C113G
modifications: Synthetic Polypeptide sequence of Variant No. 654 of mature Human GLA
In the case of B4, the “Relative Activity of GLA Variants After No Challenge (NC)” value [1] is reported as “+ (>0.5 to 1.5 relative activity over Rd7BB (SEQ ID NO: 44))”, the “Relative Activity … at pH 3.5” value [2] is reported as “+ (>0.5 to 1.5 relative activity over Rd7BB (SEQ ID NO: 44))” and the “Relative Activity … at pH 7.5” value [3] is reported as “+ (>0.5 to 1.5 relative activity over Rd7BB (SEQ ID NO: 44))”.

B5: 652 (protein)
chain: B1 chain with C113G, W246P, A261G, N305L
modifications: Synthetic Polypeptide sequence of Variant No. 652 of mature Human GLA
For B5, the “Relative Activity of GLA Variants After No Challenge (NC)” value [1] was “+ (>0.5 to 1.5 relative activity over Rd7BB (SEQ ID NO: 44))”, the “Relative Activity … at pH 3.5” value [2] was “+ (>0.5 to 1.5 relative activity over Rd7BB (SEQ ID NO: 44))” and the “Relative Activity … at pH 7.5” value [3] was “− (<0.5 relative activity to Rd7BB (SEQ ID NO: 44))”.

B6: 638 (protein)
chain: B1 chain with T10P, C113G, A261G
modifications: Synthetic Polypeptide sequence of Variant No. 638 of mature Human GLA
For B6, the “Relative Activity of GLA Variants After No Challenge (NC)” value [1] was “− (<0.5 relative activity to Rd7BB (SEQ ID NO: 44))”, the “Relative Activity … at pH 3.5” value [2] was “− (<0.5 relative activity to Rd7BB (SEQ ID NO: 44))” and the “Relative Activity … at pH 7.5” value [3] was “− (<0.5 relative activity to Rd7BB (SEQ ID NO: 44))”.

B7: 649 (protein)
chain: B1 chain with T10P, M39E, C113G, W246P
modifications: Synthetic Polypeptide sequence of Variant No. 649 of mature Human GLA
For B7, the “Relative Activity of GLA Variants After No Challenge (NC)” value [1] was “+ (>0.5 to 1.5 relative activity over Rd7BB (SEQ ID NO: 44))”, the “Relative Activity … at pH 3.5” value [2] was “+ (>0.5 to 1.5 relative activity over Rd7BB (SEQ ID NO: 44))” and the “Relative Activity … at pH 7.5” value [3] was “+ (>0.5 to 1.5 relative activity over Rd7BB (SEQ ID NO: 44))”.

B8: 658 (protein)
chain: B1 chain with M39E, C113G, W246P
modifications: Synthetic Polypeptide sequence of Variant No. 658 of mature Human GLA
In the case of B8, the “Relative Activity of GLA Variants After No Challenge (NC)” value [1] is reported as “+ (>0.5 to 1.5 relative activity over Rd7BB (SEQ ID NO: 44))”, the “Relative Activity … at pH 3.5” value [2] is reported as “+ (>0.5 to 1.5 relative activity over Rd7BB (SEQ ID NO: 44))” and the “Relative Activity … at pH 7.5” value [3] is reported as “+ (>0.5 to 1.5 relative activity over Rd7BB (SEQ ID NO: 44))”.

B9: 656 (protein)
chain: B1 chain with T10P, C113G, W246P, A261G
modifications: Synthetic Polypeptide sequence of Variant No. 656 of mature Human GLA
In the case of B9, the “Relative Activity of GLA Variants After No Challenge (NC)” value [1] is reported as “+ (>0.5 to 1.5 relative activity over Rd7BB (SEQ ID NO: 44))”, the “Relative Activity … at pH 3.5” value [2] is reported as “+ (>0.5 to 1.5 relative activity over Rd7BB (SEQ ID NO: 44))” and the “Relative Activity … at pH 7.5” value [3] is reported as “+ (>0.5 to 1.5 relative activity over Rd7BB (SEQ ID NO: 44))”.

B10: 651 (protein)
chain: B1 chain with T10P, C113G
modifications: Synthetic Polypeptide sequence of Variant No. 651 of mature Human GLA
In the case of B10, the “Relative Activity of GLA Variants After No Challenge (NC)” value [1] is reported as “+ (>0.5 to 1.5 relative activity over Rd7BB (SEQ ID NO: 44))”, the “Relative Activity … at pH 3.5” value [2] is reported as “+ (>0.5 to 1.5 relative activity over Rd7BB (SEQ ID NO: 44))” and the “Relative Activity … at pH 7.5” value [3] is reported as “+ (>0.5 to 1.5 relative activity over Rd7BB (SEQ ID NO: 44))”.

B11: 657 (protein)
chain: B1 chain with P67T, C113G, K182N
modifications: Synthetic Polypeptide sequence of Variant No. 657 of mature Human GLA
In the case of B11, the “Relative Activity of GLA Variants After No Challenge (NC)” value [1] is reported as “+ (>0.5 to 1.5 relative activity over Rd7BB (SEQ ID NO: 44))”, the “Relative Activity … at pH 3.5” value [2] is reported as “+ (>0.5 to 1.5 relative activity over Rd7BB (SEQ ID NO: 44))” and the “Relative Activity … at pH 7.5” value [3] is reported as “+ (>0.5 to 1.5 relative activity over Rd7BB (SEQ ID NO: 44))”.

B12: 650 (protein)
chain: B1 chain with R7H, T10P, C113G
modifications: Synthetic Polypeptide sequence of Variant No. 650 of mature Human GLA
With B12 the “Relative Activity of GLA Variants After No Challenge (NC)” value [1] was “+ (>0.5 to 1.5 relative activity over Rd7BB (SEQ ID NO: 44))”, the “Relative Activity … at pH 3.5” value [2] was “+ (>0.5 to 1.5 relative activity over Rd7BB (SEQ ID NO: 44))” and the “Relative Activity … at pH 7.5” value [3] was “+ (>0.5 to 1.5 relative activity over Rd7BB (SEQ ID NO: 44))”.

B13: 655 (protein)
chain: B1 chain with C113G, W246P, A261G, N305L, W368A
modifications: Synthetic Polypeptide sequence of Variant No. 655 of mature Human GLA
With B13 the “Relative Activity of GLA Variants After No Challenge (NC)” value [1] was “+ (>0.5 to 1.5 relative activity over Rd7BB (SEQ ID NO: 44))”, the “Relative Activity … at pH 3.5” value [2] was “− (<0.5 relative activity to Rd7BB (SEQ ID NO: 44))” and the “Relative Activity … at pH 7.5” value [3] was “− (<0.5 relative activity to Rd7BB (SEQ ID NO: 44))”.

B14: 647 (protein)
chain: LDNGLARTPTMGWLHWERFMCNLDCQEEPDSCISEKLFMEMAERMVSEGWKDAGYEYLCIDDCWMAPQRDSEGRLQADPQRFPHGIRQLANYVHSIGLKLGIYADVGNKTCAGFPGSFGYYDIDAQTFADWGVDLLKFDGCYCDSLENLADGYKHMSLALNRTGRSIVYSCEWPLYMWPFQKPNYTEIRQYCNHWRNFADIDDSWASIKSILDWTSRNQERIVDVAGPGGWNDPDMLVIGNFGLSWNQQVTQMALWAIMAAPLFMSNDLRHISPQAKALLQDKDVIAINQDPLGKQGYQLRKGDNFEVWERPLSGLAWAVAIINRQEIGGPRSYTIAVASLGKGVACNPGCFITQLLPVKRQLGFYNWSSRLKSHINPTGTVLLQLENTMQMSLKDLL
modifications: Synthetic Polypeptide sequence of Variant No. 346 of mature Human GLA
With B14 the “Relative Activity of GLA Variants After No Challenge (NC)” value [1] was “− (<0.5 relative activity to Rd7BB (SEQ ID NO: 44))”, the “Relative Activity … at pH 3.5” value [2] was “− (<0.5 relative activity to Rd7BB (SEQ ID NO: 44))” and the “Relative Activity … at pH 7.5” value [3] was “− (<0.5 relative activity to Rd7BB (SEQ ID NO: 44))”.
